How the values were obtained:
[1] = target: T1, human ENTPD2 (Homo sapiens, UniProt Q9Y5L3); assay: Biacore (SPR) affinity to human ENTPD2 ECD; format: binding; conditions: 25° C.
T1 construct: residues 29-462 of human or cyno ENTPD2 were cloned into expression vector; GP67 signal peptide (N); made in house; host or cells: High Five (Trichoplusia ni) insect cells, baculovirus
T1 sequence (Q9Y5L3 29-462): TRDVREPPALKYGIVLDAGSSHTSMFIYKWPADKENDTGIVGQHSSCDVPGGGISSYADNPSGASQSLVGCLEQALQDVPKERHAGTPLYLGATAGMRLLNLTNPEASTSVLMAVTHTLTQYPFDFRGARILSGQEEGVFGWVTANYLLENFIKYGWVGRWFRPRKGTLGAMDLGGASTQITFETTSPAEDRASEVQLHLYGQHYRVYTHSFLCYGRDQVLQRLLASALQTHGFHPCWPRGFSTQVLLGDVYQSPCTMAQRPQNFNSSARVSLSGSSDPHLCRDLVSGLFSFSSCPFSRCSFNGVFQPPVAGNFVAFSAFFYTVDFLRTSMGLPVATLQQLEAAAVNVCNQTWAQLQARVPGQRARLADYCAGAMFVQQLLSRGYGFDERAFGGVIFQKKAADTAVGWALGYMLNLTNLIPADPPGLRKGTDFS
Protocol: (§1) Biacore Screening: Affinity was measured by determining the kinetic rate constants using surface plasmon resonance (SPR) on a Biacore T200 or T100 with the T200 sensitivity upgrade instrument (Biacore, GE Healthcare). Antibodies were captured on CM5 sensor chips (Biacore, GE Healthcare) prepared with a mouse anti-human IgG Fc antibody (ThermoFisher catalogue #05-4200) amine coupled to the surface. […] ENTPD2 analytes were allowed to associate for 180 s and dissociate for up to 1800 s depending on the off-rate of the antibody at a flow rate of 30 μL/min. The running buffer was PBS pH 7.2 (prepared from a Corning 10X stock, cat#46-013-CM)+0.05% Tween 20. Regeneration was accomplished with 30 s injections of 3 or 4 M MgCl2 to remove all the captured antibody and remaining complex from the surface, after which fresh antibody was captured. The raw data were analyzed using Biacore T200 Evaluation Software version 1.0 and fit to a 1:1 binding model, with all parameters set to fit globally except for RI, which was set to fit locally.

[2] = test system: cynomologus (cyno) ENTPD2; assay: Biacore (SPR) affinity to cyno ENTPD2 ECD; format: binding, cynomolgus monkey; conditions: 25° C.
Protocol: as §1

[3] = target: T2, mouse ENTPD2 (Mus musculus, UniProt O55026); assay: Antibody specificity: binding to mouse ENTPD2; conditions: Mouse ENTPD2
T2 construct: residues 29-462 of mouse or rat ENTPD2 (the extracellular domain); mouse IgK signal peptide (N); His6; made in house; host or cells: FreeStyle 293-F cells, transient transfection
T2 sequence (O55026 29-462): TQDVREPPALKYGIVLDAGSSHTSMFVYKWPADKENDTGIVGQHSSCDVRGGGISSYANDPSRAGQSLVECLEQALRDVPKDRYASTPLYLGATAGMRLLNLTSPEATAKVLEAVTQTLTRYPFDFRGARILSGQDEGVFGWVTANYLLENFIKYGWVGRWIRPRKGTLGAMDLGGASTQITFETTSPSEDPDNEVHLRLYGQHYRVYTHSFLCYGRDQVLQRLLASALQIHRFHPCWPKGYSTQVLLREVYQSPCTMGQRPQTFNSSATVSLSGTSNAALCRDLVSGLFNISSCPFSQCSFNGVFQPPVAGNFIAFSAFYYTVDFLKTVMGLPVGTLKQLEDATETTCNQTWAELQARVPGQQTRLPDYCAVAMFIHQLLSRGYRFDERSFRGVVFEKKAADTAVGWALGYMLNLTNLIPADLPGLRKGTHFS
From the text: Antibody specificity for mAbl-mAblO was confirmed. […] Antibodies mAb8, mAb9, and mAb10 show weak affinity to mouse ENTPD2. None of the selected antibodies bind to rat ENTPD2.

[4] = target: T3, Human ENTPD1 (Homo sapiens, UniProt P49961); assay: Cross reactivity: FACS binding to human ENTPD1 expressing NIH/3T3 cells; conditions: NIH/3T3-ENTPD1 cells, 50 nM antibody
T3 construct: expressed in transfected cells; host or cells: NIH/3T3 (retroviral transduction, FACS-sorted)
T3 sequence (P49961 1-510): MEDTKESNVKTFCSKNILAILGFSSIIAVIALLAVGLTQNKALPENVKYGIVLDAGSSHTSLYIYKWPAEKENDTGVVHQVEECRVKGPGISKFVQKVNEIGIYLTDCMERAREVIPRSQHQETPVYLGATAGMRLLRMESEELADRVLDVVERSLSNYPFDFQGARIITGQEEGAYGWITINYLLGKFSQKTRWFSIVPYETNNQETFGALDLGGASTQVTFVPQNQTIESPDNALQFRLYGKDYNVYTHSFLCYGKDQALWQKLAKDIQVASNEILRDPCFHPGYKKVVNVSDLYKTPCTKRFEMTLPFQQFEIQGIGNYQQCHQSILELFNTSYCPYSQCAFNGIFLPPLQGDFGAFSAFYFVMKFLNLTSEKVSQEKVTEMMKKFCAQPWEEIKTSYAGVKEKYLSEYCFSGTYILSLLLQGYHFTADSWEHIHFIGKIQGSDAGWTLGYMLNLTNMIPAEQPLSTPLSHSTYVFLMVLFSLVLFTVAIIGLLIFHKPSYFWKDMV
Protocol: (§2) FACS screening: Specific binding of candidate antibodies to endogenously expressed ENTPD2 was assessed by flow cytometry. Cells were rinsed thoroughly with 1×PBS and treated with Accutase (Millipore #SCR005) to lift from growth plates and resuspended at approximately 1×10^5 cells/90 μL in 1× FACS buffer (2% FBS+0.1% NaN3 in PBS). In a 96-well U-bottom plate, 10 μL of 10× antibody solution in FACS buffer was pre-seeded and 90 μL of cell suspension was added. Cell were incubated for 30 minutes at 4° C., washed 1× with cold PBS and resuspended in 100 μL of 1:500 secondary antibody 1× FACS buffer (Allophycocyanin conjugated F(ab′)2 goat anti-human IgG, Fcγ specific; Jackson Immunoresearch, Cat#109-136-098). After additional incubation for 15 min at 4° C., cells were washed twice with PBS and resuspended in 100 μL of 1×FACS buffer with 4 μg/mL propidium iodide (Life Technologies, Cat#P3566). Geometric mean fluorescence intensity was calculated on live single cells using FlowJo software.
(§3) Cross reactivity Human ENTPD1 (NP_001767) expressing NIH/3T3 cells were generated using a retroviral transduction approach. 72 hrs post transduction, engineered cells were stained with the anti-Human CD39/ENTPD1 APC-conjugated Antibody (R&D systems, Minneapolis, Minn.) and live cells that expressed human ENTPD1 were separated from the rest of the population via fluorescence activated cell sorting. […]

[5] = test system: H520 cells; assay: Cross reactivity: FACS binding to H520 cells (ENTPD3 and ENTPD8 expression); design: species or system human; conditions: 50 nM antibody
Protocol: as §2
H520 cells were identified as a cancer cell line with ENTPD3 (Ct 25) and ENTPD8 (Ct 26) expression by Taqman and were used for selectivity screening.

[6] = test system: human ENTPD2 engineered B16LM3 clone B5; assay: Human ENTPD2 engineered B16LM3 clone B5 model, dose response with anti-PD-1 Ab; format: in vivo
From the text: This model was derived from the B16LM3 melanoma model, where endogenous mouse ENTPD2 expression was knocked out via a transient electroporation of CAS9 protein with CRISPR guide RNA sequences against mouse ENTPD2, and human ENTPD2 was overexpressed using a retroviral transduction approach.
Once tumors reached approximately 35-50 mm^3, mice were randomized according to tumor volume into treatment groups (n=8 per group). […] All doses were adjusted to individual mouse body weights.

[7] = test system: NIH/3T3 cells; assay: Cross reactivity: FACS binding to NIH/3T3 control cells; conditions: 50 nM antibody
Protocol: as §2, §3

[8] = Day 7, mAb 10 mg/kg dosed D1, no anti-PD-1 Ab

Sequence of cynomologus (cyno) ENTPD2 (as listed by the source): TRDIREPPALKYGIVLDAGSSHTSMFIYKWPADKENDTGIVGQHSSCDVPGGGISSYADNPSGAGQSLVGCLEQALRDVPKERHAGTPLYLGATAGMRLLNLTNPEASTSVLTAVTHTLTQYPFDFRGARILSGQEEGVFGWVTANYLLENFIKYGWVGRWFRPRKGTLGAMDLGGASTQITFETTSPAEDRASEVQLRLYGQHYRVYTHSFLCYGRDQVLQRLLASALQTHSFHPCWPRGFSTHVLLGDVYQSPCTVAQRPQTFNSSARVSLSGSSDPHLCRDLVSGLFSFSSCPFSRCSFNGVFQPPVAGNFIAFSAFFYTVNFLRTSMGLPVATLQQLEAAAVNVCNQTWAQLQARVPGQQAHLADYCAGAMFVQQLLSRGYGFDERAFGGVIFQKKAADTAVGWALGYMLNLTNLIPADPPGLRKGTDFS

B1: mAb6: humanized anti-human ENTPD2 antibody from mAb16; VH SEQ ID NO: 70, VL SEQ ID NO: 74 (antibody, V domains shown)
VH: QVQLQESGPGLVKPSQTLSLTCTVSGYSITSGYYWNWIRQHPGKGLEWMGYISYDADNNYNPSLKNRITISRDTSKNQFSLKLSSVTAADTAVYYCAGGYYRYGLGSYSGSYYYVMDYWGQGTTVTVSS
VL: DTQMTQSPSSLSVSVGDRATITCKASQSVDYEGHSYMNWYQQKPGKAPKLLIYAASNLESGVPSRFSGSGSGTDFTLTISSVQPEDFATYYCQQSNEDPPTFGGGTKLEIK
- ka [1]: 350000 M⁻¹ s⁻¹
- kd [1]: 0.00026 s⁻¹
- ka [2]: 290000 M⁻¹ s⁻¹
- kd [2]: 0.01 s⁻¹
- BIACore KD [3]: No binding
- Apparent FACS binding at 50 nM [4]: No binding
- Apparent FACS binding at 50 nM [5]: No binding
- ΔT/ΔC ([6]; 0.1 mg/kg i.v. day 1, combination with anti-PD-1 Ab fixed dose 10 mg/kg, Day 7): 41.0%
- ΔT/ΔC ([6]; 1 mg/kg i.v. day 1, combination with anti-PD-1 Ab fixed dose 10 mg/kg, Day 7): 27.3%
- ΔT/ΔC ([6]; 10 mg/kg i.v. day 1, combination with anti-PD-1 Ab fixed dose 10 mg/kg, Day 7): 29.2%
- Host Response Survival (alive/total) [6, 8]: 8/8
- Host Response Δ body weight [6, 8]: −0.1%
- Tumor Response ΔT/ΔC [6, 8]: 60.0%
- anti-tumor efficacy ([6]; as single agents, i.v. day 1): No significant anti-tumor efficacy
- Apparent FACS binding at 50 nM [7]: No binding
